# In US20220041746A1 (Sanofi, published 2022):
# Experiments:
# [1] = target: human CD28 (SPR of Example 4) (human, UniProt P10747 19-152, limits assumed); experiment: SPR, mono-, bi- and trispecific formats (FIG. 5)
# [2] = target: T1, human CD38 expressed on the cell surface (human, UniProt P28907 1-300); experiment: flow cytometry on preB::300.19 cells, apparent KD
# T1 construct: whole, on cells; also called hCD38-expressing cells; huCD38
# Method: (§1) The recombinant cell line was described by J. Deckket et al. 2014 Clin Cancer Res 20:4574-4583. […] Antibody binding was evaluated after centrifugation and resuspension of cells by adding 200 μL/well PBS 1% BSA and read using Guava® easvCyte™ 8HT Flow Cytometry System. Apparent KD and EC50 values were estimated using BIOST@T-BINDING and BIOST@T-SPEED software, respectively.
# [3] = target: T2, cynomolgus monkey CD38 expressed on the cell surface (cynomolgus monkey, UniProt Q5VAN0 1-301); experiment: flow cytometry on preB::300.19 cells, apparent KD
# T2 construct: whole, on cells; also called cCD38-expressing cells
# Method: as §1
# [4] = target: T3, hCD38-his (SEQ ID NO: 2) (human, UniProt P28907 45-300); experiment: SPR, mAb captured via anti-human Fc, soluble CD38-his injected
# T3 construct: His-tagged soluble protein derived from isoform A; also called human CD38-histag; hCD38::Histag
# Method: (§2) The binding properties of the anti-huCD38 mabs were evaluated using a BIAcore 2000 (BIAcore Inc., Uppsala, Ni). […] The surface was regenerated between injections using 30 μL of 50 mM NaOH-1 M NaCl. Individual sensorgrams wore analyzed using BIAsimulation software.
# [5] = target: T4, cCD38-his (SEQ ID NO: 4) (cynomolgus monkey, UniProt Q5VAN0 46-301); experiment: as above
# T4 construct: His-tagged soluble protein; also called cyno CD38-histag; cynoCD38::Histag
# Method: as §2
# [6] = target: T4, cCD38-his (SEQ ID NO: 4); experiment: ELISA (column ELISA EC50 nM, cyno)
# [7] = target: T2, cynomolgus monkey CD38 expressed on the …; experiment: flow cytometry (column FACS EC50 nM, cyno)
# Method: as §1
# [8] = target: T1, human CD38 expressed on the cell surface; experiment: flow cytometry (column FACS EC50 nM, hu)
# Method: as §1
# [9] = target: T3, hCD38-his (SEQ ID NO: 2); experiment: ELISA (column ELISA EC50 nM, hu)
# [10] = target: human CD38 (Cambridge Biologics LLC Cat #03-01-0369) (human, UniProt P28907 43-300); experiment: ELISA on coated hCD38-His
# Method: The binding properties of the purified antibodies were analyzed either using ELISA or SPR methods. For ELISA, corresponding antigens for each binding site in the trispecific binding protein were used to coat a 96-well Immuno Plate (Nunc 439454, Thermo Fisher Scientific) overnight at 4° C. using 2 μg/ml each antigen m PBS(pH7.4). The coated plate was blocked using 5% skim milk 12% BSA in PBS for one hour at RT, followed by washing with PBS+[…] three times (Aqua Max 400, Molecular Devices). Serial dilution of antibodies (trispecific and control Abs) were prepared and added onto the ELISA plates (100 μl/well in duplicate), incubated at RT for one hour, followed by washing 5 times with PBS+0.25% Tween 20.
# The reaction was terminated by adding 50 μl 1M H₂SO₄, and OD₄₅₀ was measured using SpectraMax M5 (Molecular Devices) and analyzed using SoltMax Pro6.3 software (Molecular Devices). The final data was transferred to GraphPad Prism software (GraphPad Software, CA. USA), and plotted as shown. EC50 was calculated using the same software.
binder,measurement,setting,value
"anti-CD28sup antigen binding domain (antibody, V domains shown, also called super agonist, ""sup"") VH: QVQLVQSGAEVVKPGASVKVSCKASGYTFTSYYIHWVRQAPGQGLEWIGSIYPGNVNTNYAQKFQGRATLTVDTSISTAYMELSRLRSDDTAVYYCTRSHYGLDWNFDVWGKGTTVTVSS VL: DIQMTQSPSSLSASVGDRVTITCQASQNIYVWLNWYQQKPGKAPKLLIYKASNLHTGVPSRFSGSGSGTDFTLTISSLQPEDIATYYCQQGQTYPYTFGQGTKLEIK",binding result,[1],binds
"anti-CD28cvn antigen binding domain (antibody, V domains shown, also called anti-CD28evn; conventional agonist, ""cvn"") VH: QVQLQESGPGLVKPSQTLSLTCTVSGFSLSDYGVHWVRQPPGKGLEWLGVIWAGGGTNYNPSLKSRKTISKDTSKNQVSLKLSSVTAADTAVYYCARDKGYSYYYSMDYWGQGTTVTVSS VL: DIVLTQSPASLAVSPGQRATITCRASESVEYYVTSLMQWYQQKPGQPPKLLIFAASNVESGVPARFSGSGSGTDFTLTINPVEANDVANYYCQQSRKVPYTFGQGTKLEIK",binding result,[1],binds
"mAb4 (antibody, human IgG1, kappa, V domains shown, also called antiCD38_C2-CD38-1_VH5-VL3) VH: QVQLVQSGAEVVKSGASVKVSCKASGYTFTSFNMHWVKEAPGQGLEWIGYIYPGNGGTNYNQKFQGRATLTADTSASTAYMEISSLRSEDTAVYFCARTGGLRRAYFTYWGQGTLVTVSS VL: DIVLTQSPATLSLSPGERATISCRASESVDSYGNGFMHWYQQKPGQPPRLLIYLASSRATGIPARFSGSGSGTDFTLTISPLEPEDFAVYYCQQNKEDPWTFGGGTKLEIKR",Kd,[2],0.33 nM
same,Kd,[3],1.15 nM
same,Kd,[4],0.822 nM
same,koff,[4],0.000529 s⁻¹
same,Kd,[5],1.14 nM
same,koff,[5],0.000201 s⁻¹
same,EC50,[6],0.17 nM
same,EC50,[7],1.15 nM
same,EC50,[8],0.55 nM
same,EC50,[9],0.16 nM
"mAb2xCD28supxCD3mid IgG4 FALA (other, also called CD38VH1×CD28sup×CD3mid IgG4 FALA) heavy 1: QVQLVQSGAEVVKPGASVKVSCKASGYTFTSYYIHWVRQAPGQGLEWIGSIYPGNVNTNYAQKFQGRATLTVDTSISTAYMELSRLRSDDTAVYYCTRSHYGLDWNFDVWGKGTTVTVSSSQVQLVESGGGVVQPGRSLRLSCAASGFTFTKAWMHWVRQAPGKQLEWVAQIKDKSNSYATYYADSVKGRFTISRDDSKNTLYLQMNSLRAEDTAVYYCRGVYYALSPFDYWGQGTLVTVSSRTASTKGPSVFPLAPCSRSTSESTAALGCLVKDYFPEPVTVSWNSGALTSGVHTFPAVLQSSGLYSLSSVVTVPSSSLGTKTYTCNVDHKPSNTKVDKRVESKYGPPCPPCPAPEAAGGPSVFLFPPKPKDTLMISRTPEVTCVVVDVSQEDPEVQFNWYVDGVEVHNAKTKPREEQFNSTYRVVSVLTVLHQDWLNGKEYKCKVSNKGLPSSIEKTISKAKGQPREPQVCTLPPSQEEMTKNQVSLSCAVKGFYPSDIAVEWESNGQPENNYKTTPPVLDSDGSFFLVSKLTVDKSRWQEGNVFSCSVMHEALHNHYTQKSLSLSLG light 1: DIVMTQTPLSLSVTPGQPASISCKSSQSLVHNNANTYLSWYLQKPGQSPQSLIYKVSNRFSGVPDRFSGSGSGTDFTLKISRVEAEDVGVYYCGQGTQYPFTFGSGTKVEIKGQPKAAPDIQMTQSPSSLSASVGDRVTITCQASQNIYVWLNWYQQKPGKAPKLLIYKASNLHTGVPSRFSGSGSGTDFTLTISSLQPEDIATYYCQQGQTYPYTFGQGTKLEIKTKGPSRTVAAPSVFIFPPSDEQLKSGTASVVCLLNNFYPREAKVQWKVDNALQSGNSQESVTEQDSKDSTYSLSSTLTLSKADYEKHKVYACEVTHQGLSSPVTKSFNRGEC heavy 2: QVQLVQSGAEVVKPGASVKVSCKASGYTFTSYAMHWVKEAPGQRLEWIGYIYPGQGGTNYNQKFQGRATLTADTSASTAYMELSSLRSEDTAVYFCARTGGLRRAYFTYWGQGTLVTVSSASTKGPSVFPLAPCSRSTSESTAALGCLVKDYFPEPVTVSWNSGALTSGVHTFPAVLQSSGLYSLSSVVTVPSSSLGTKTYTCNVDHKPSNTKVDKRVESKYGPPCPPCPAPEAAGGPSVFLFPPKPKDTLMISRTPEVTCVVVDVSQEDPEVQFNWYVDGVEVHNAKTKPREEQFNSTYRVVSVLTVLHQDWLNGKEYKCKVSNKGLPSSIEKTISKAKGQPREPQVYTLPPCQEEMTKNQVSLWCLVKGFYPSDIAVEWESNGQPENNYKTTPPVLDSDGSFFLYSKLTVDKSRWQEGNVFSCSVMHEALHNHYTQKSLSLSLG light 2: DIVLTQSPATLSLSPGERATISCRASQSVSSYGQGFMHWYQQKPGQPPRLLIYGASSRATGIPARFSGSGSGTDFTLTISPLEPEDFAVYYCQQNKEDPWTFGGGTKLEIKRTVAAPSVFIFPPSDEQLKSGTASVVCLLNNFYPREAKVQWKVDNALQSGNSQESVTEQDSKDSTYSLSSTLTLSKADYEKHKVYACEVTHQGLSSPVTKSFNRGEC",binding result,[10],binds
"mAb2xCD28supxCD3mid IgG1 NNSA (other, also called CD38VH1×CD28sup×CD3mid IgG1 NNAS) heavy 1: QVQLVQSGAEVVKPGASVKVSCKASGYTFTSYYIHWVRQAPGQGLEWIGSIYPGNVNTNYAQKFQGRATLTVDTSISTAYMELSRLRSDDTAVYYCTRSHYGLDWNFDVWGKGTTVTVSSSQVQLVESGGGVVQPGRSLRLSCAASGFTFTKAWMHWVRQAPGKQLEWVAQIKDKSNSYATYYADSVKGRFTISRDDSKNTLYLQMNSLRAEDTAVYYCRGVYYALSPFDYWGQGTLVTVSSRTASTKGPSVFPLAPSSKSTSGGTAALGCLVKDYFPEPVTVSWNSGALTSGVHTFPAVLQSSGLYSLSSVVTVPSSSLGTQTYICNVNHKPSNTKVDKKVEPKSCDKTHTCPPCPAPELLGGPSVFLFPPKPKDTLMISRTPEVTCVVVDVSHEDPEVKFNWYVDGVEVHNAKTKPREEQYNNASRVVSVLTVLHQDWLNGKEYKCKVSNKALPAPIEKTISKAKGQPREPQVCTLPPSRDELTKNQVSLSCAVKGFYPSDIAVEWESNGQPENNYKTTPPVLDSDGSFFLVSKLTVDKSRWQQGNVFSCSVMHEALHNHYTQKSLSLSPG light 1: DIVMTQTPLSLSVTPGQPASISCKSSQSLVHNNANTYLSWYLQKPGQSPQSLIYKVSNRFSGVPDRFSGSGSGTDFTLKISRVEAEDVGVYYCGQGTQYPFTFGSGTKVEIKGQPKAAPDIQMTQSPSSLSASVGDRVTITCQASQNIYVWLNWYQQKPGKAPKLLIYKASNLHTGVPSRFSGSGSGTDFTLTISSLQPEDIATYYCQQGQTYPYTFGQGTKLEIKTKGPSRTVAAPSVFIFPPSDEQLKSGTASVVCLLNNFYPREAKVQWKVDNALQSGNSQESVTEQDSKDSTYSLSSTLTLSKADYEKHKVYACEVTHQGLSSPVTKSFNRGEC heavy 2: QVQLVQSGAEVVKPGASVKVSCKASGYTFTSYAMHWVKEAPGQRLEWIGYIYPGQGGTNYNQKFQGRATLTADTSASTAYMELSSLRSEDTAVYFCARTGGLRRAYFTYWGQGTLVTVSSASTKGPSVFPLAPSSKSTSGGTAALGCLVKDYFPEPVTVSWNSGALTSGVHTFPAVLQSSGLYSLSSVVTVPSSSLGTQTYICNVNHKPSNTKVDKKVEPKSCDKTHTCPPCPAPELLGGPSVFLFPPKPKDTLMISRTPEVTCVVVDVSHEDPEVKFNWYVDGVEVHNAKTKPREEQYNNASRVVSVLTVLHQDWLNGKEYKCKVSNKALPAPIEKTISKAKGQPREPQVYTLPPCRDELTKNQVSLWCLVKGFYPSDIAVEWESNGQPENNYKTTPPVLDSDGSFFLYSKLTVDKSRWQQGNVFSCSVMHEALHNHYTQKSLSLSPG light 2: DIVLTQSPATLSLSPGERATISCRASQSVSSYGQGFMHWYQQKPGQPPRLLIYGASSRATGIPARFSGSGSGTDFTLTISPLEPEDFAVYYCQQNKEDPWTFGGGTKLEIKRTVAAPSVFIFPPSDEQLKSGTASVVCLLNNFYPREAKVQWKVDNALQSGNSQESVTEQDSKDSTYSLSSTLTLSKADYEKHKVYACEVTHQGLSSPVTKSFNRGEC",binding result,[10],binds
